According to PMC6527014:

Tests used:
[1] = molecular target: recombinant SCM (Streptococcus canis M protein), mature wild type (Streptococcus canis (strain G361)); test: SPR
[2] = molecular target: SCM on the surface of S. canis strain G361 (Streptococcus canis (endogenous in strain G361)); test: radioligand binding; inhibition: S. canis G361 with iodinated full-length SCM after pre-incubation with non-iodinated SCM, N-225 or C-226 (5 µg in the text, 1 µM in the legend)
[3] = molecular target: SCM on the surface of S. canis strain G361 (Streptococcus canis (endogenous in strain G361)); test: radioligand binding; iodinated protein (chloramine T) incubated with whole bacteria; percentage binding of totally used iodinated protein

“recombinant SCM (Streptococcus canis M protein), mature wild type” gave a Kd ([1]; natural protein) of 4.12 µM.

For SCM fragment N-225, the Kd ([1]; domain or fragment) was 0.0585 µM.

For SCM fragment N-225 (domain or fragment), the percent of iodinated SCM bound to G361 with the unlabelled competitor [2] was 6.8%.

“recombinant SCM (Streptococcus canis M protein), mature wild type (natural protein)” gave a percent of the iodinated protein bound [3] of 24.1% and a percent of iodinated SCM bound to G361 with the unlabelled competitor [2] of 4.4%.
